The labels stand for the following.
T1: human interleukin 12 (human, UniProt P29459 23-219; P29460 23-328)
T1 construct: heterodimer of p35 and p40 linked by a disulfide bridge; also called hIL-12; IL-12
T1 sequence (looked up) 1: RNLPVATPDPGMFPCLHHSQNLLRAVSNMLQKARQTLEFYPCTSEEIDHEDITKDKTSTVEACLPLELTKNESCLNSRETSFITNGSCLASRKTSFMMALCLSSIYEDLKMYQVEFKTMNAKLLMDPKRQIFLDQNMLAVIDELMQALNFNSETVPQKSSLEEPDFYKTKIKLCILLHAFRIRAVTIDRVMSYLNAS
T1 sequence (looked up) 2: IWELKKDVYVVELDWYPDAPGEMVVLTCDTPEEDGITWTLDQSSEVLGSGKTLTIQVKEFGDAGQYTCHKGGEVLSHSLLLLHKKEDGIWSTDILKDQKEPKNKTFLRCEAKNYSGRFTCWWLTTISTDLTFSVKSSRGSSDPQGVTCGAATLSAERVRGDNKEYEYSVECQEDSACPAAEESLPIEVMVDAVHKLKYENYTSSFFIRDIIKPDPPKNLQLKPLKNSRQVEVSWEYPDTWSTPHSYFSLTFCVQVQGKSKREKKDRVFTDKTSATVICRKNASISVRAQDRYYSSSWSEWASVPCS

B1: 170-21 (antibody, V domains shown)
VH: QVQLVQSGGGVVQPGRSLRLSCAASGFTFSSYGMHWVRQAPGKGLEWVAFIRYDGSNKYYADSVKGRFTISRDNSKNTLYLQMKSLRAEDTAVYYCTTHGSQDNWGQGTMVTVSS
VL: SYVLTQPPSVSGTPGQRVTISCSGGRSNIGSNTVKWYQQLPGTAPKLLIYGNDQRPSGVPDRFSGSKSGTSASLAITGVQAEDEADYYCQSYDRGFTGPRLFGTGTKVTVL
B2: 73-G2 (antibody, V domains shown)
VH: QVQLVQSGGGVVQPGRSLRLSCAASGFTFSSYGMHWVRQAPGKGLEWVAFIRYDGSNKYYADSVKGRFTISRDNSKNTLYLQMKSLRAEDTAVYYCTTSGSYDYWGQGTMVTVSS
VL: SYVLTQPPSVSGTPGQRVTISCSGGRSNIGSNTVKWYQQLPGTAPKLLIYGNDQRPSGVPDRFSGSKSGTSASLAITGVQAEDEADYYCHTNDSGFTGSRVFGTGTKVTVLG
B3: 73-C6 (antibody, V domains shown)
VH: QVQLVQSGGGVVQPGRSLRLSCAASGFTFSSYGMHWVRQAPGKGLEWVAFIRYDGSNKYYADSVKGRFTISRDNSKNTLYLQMKSLRAEDTAVYYCTTSGSYDYWGQGTMVTVSS
VL: SYVLTQPPSVSGTPGQRVTISCSGGRSNIGSNTVKWYQQLPGTAPKLLIYGNDQRPSGVPDRFSGSKSGTSASLAITGVQAEDEADYYCQSYDTGFTGSRVFGTGTKVTVLG
B4: 73-G3 (antibody, V domains shown)
VH: QVQLVQSGGGVVQPGRSLRLSCAASGFTFSSYGMHWVRQAPGKGLEWVAFIRYDGSNKYYADSVKGRFTISRDNSKNTLYLQMKSLRAEDTAVYYCTTSGSYDYWGQGTMVTVSS
VL: SYVLTQPPSVSGTPGQRVTISCSGGRSNIGSNTVKWYQQLPGTAPKLLIYGNDQRPSGVPDRFSGSKSGTSASLAITGVQAEDEADYYCHSYDTRFTGSRVFGTGTKVTVLG
B5: 73-D5 (antibody, V domains shown)
VH: QVQLVQSGGGVVQPGRSLRLSCAASGFTFSSYGMHWVRQAPGKGLEWVAFIRYDGSNKYYADSVKGRFTISRDNSKNTLYLQMKSLRAEDTAVYYCTTSGSYDYWGQGTMVTVSS
VL: SYVLTQPPSVSGTPGQRVTISCSGGRSNIGSNTVKWYQQLPGTAPKLLIYGNDQRPSGVPDRFSGSKSGTSASLAITGVQAEDEADYYCHSSDSGFTGSRVFGTGTKVTVLG
B6: 73-C2 (antibody, V domains shown)
VH: QVQLVQSGGGVVQPGRSLRLSCAASGFTFSSYGMHWVRQAPGKGLEWVAFIRYDGSNKYYADSVKGRFTISRDNSKNTLYLQMKSLRAEDTAVYYCTTSGSYDYWGQGTMVTVSS
VL: SYVLTQPPSVSGTPGQRVTISCSGGRSNIGSNTVKWYQQLPGTAPKLLIYGNDQRPSGVPDRFSGSKSGTSASLAITGVQAEDEADYYCQSYDSEFTGSRVFGTGTKVTVLG
B7: 73-F3 (antibody, V domains shown)
VH: QVQLVQSGGGVVQPGRSLRLSCAASGFTFSSYGMHWVRQAPGKGLEWVAFIRYDGSNKYYADSVKGRFTISRDNSKNTLYLQMKSLRAEDTAVYYCTTSGSYDYWGQGTMVTVSS
VL: SYVLTQPPSVSGTPGQRVTISCSGGRSNIGSNTVKWYQQLPGTAPKLLIYGNDQRPSGVPDRFSGSKSGTSASLAITGVQAEDEADYYCQSYDAPWSGSRVFGTGTKVTVLG
B8: 73-G5 (antibody, V domains shown)
VH: QVQLVQSGGGVVQPGRSLRLSCAASGFTFSSYGMHWVRQAPGKGLEWVAFIRYDGSNKYYADSVKGRFTISRDNSKNTLYLQMKSLRAEDTAVYYCTTSGSYDYWGQGTMVTVSS
VL: SYVLTQPPSVSGTPGQRVTISCSGGRSNIGSNTVKWYQQLPGTAPKLLIYGNDQRPSGVPDRFSGSKSGTSASLAITGVQAEDEADYYCHSSDSDSTGSRVFGTGTKVTVLG
B9: 73-G4 (antibody, V domains shown)
VH: QVQLVQSGGGVVQPGRSLRLSCAASGFTFSSYGMHWVRQAPGKGLEWVAFIRYDGSNKYYADSVKGRFTISRDNSKNTLYLQMKSLRAEDTAVYYCTTSGSYDYWGQGTMVTVSS
VL: SYVLTQPPSVSGTPGQRVTISCSGGRSNIGSNTVKWYQQLPGTAPKLLIYGNDQRPSGVPDRFSGSKSGTSASLAITGVQAEDEADYYCQSYDMRFTGSRVFGTGTKVTVLG
B10: 73-B2 (antibody, V domains shown)
VH: QVQLVQSGGGVVQPGRSLRLSCAASGFTFSSYGMHWVRQAPGKGLEWVAFIRYDGSNKYYADSVKGRFTISRDNSKNTLYLQMKSLRAEDTAVYYCTTSGSYDYWGQGTMVTVSS
VL: SYVLTQPPSVSGTPGQRVTISCSGGRSNIGSNTVKWYQQLPGTAPKLLIYGNDQRPSGVPDRFSGSKSGTSASLAITGVQAEDEADYYCHSSESGFTGSRVFGTGTKVTVLG
B11: 73-D4 (antibody, V domains shown)
VH: QVQLVQSGGGVVQPGRSLRLSCAASGFTFSSYGMHWVRQAPGKGLEWVAFIRYDGSNKYYADSVKGRFTISRDNSKNTLYLQMKSLRAEDTAVYYCTTSGSYDYWGQGTMVTVSS
VL: SYVLTQPPSVSGTPGQRVTISCSGGRSNIGSNTVKWYQQLPGTAPKLLIYGNDQRPSGVPDRFSGSKSGTSASLAITGVQAEDEADYYCHSYDTKFTGSRVFGTGTKVTVLG
B12: 73-F5 (antibody, V domains shown)
VH: QVQLVQSGGGVVQPGRSLRLSCAASGFTFSSYGMHWVRQAPGKGLEWVAFIRYDGSNKYYADSVKGRFTISRDNSKNTLYLQMKSLRAEDTAVYYCTTSGSYDYWGQGTMVTVSS
VL: SYVLTQPPSVSGTPGQRVTISCSGGRSNIGSNTVKWYQQLPGTAPKLLIYGNDQRPSGVPDRFSGSKSGTSASLAITGVQAEDEADYYCQSYDSDFTGSKVFGTGTKVTVLG
B13: 73-E3 (antibody, V domains shown)
VH: QVQLVQSGGGVVQPGRSLRLSCAASGFTFSSYGMHWVRQAPGKGLEWVAFIRYDGSNKYYADSVKGRFTISRDNSKNTLYLQMKSLRAEDTAVYYCTTSGSYDYWGQGTMVTVSS
VL: SYVLTQPPSVSGTPGQRVTISCSGGRSNIGSNTVKWYQQLPGTAPKLLIYGNDQRPSGVPDRFSGSKSGTSASLAITGVQAEDEADYYCQSYDSDFTGSRVFGTGTKVTVLG
B14: 73-E6 (antibody, V domains shown)
VH: QVQLVQSGGGVVQPGRSLRLSCAASGFTFSSYGMHWVRQAPGKGLEWVAFIRYDGSNKYYADSVKGRFTISRDNSKNTLYLQMKSLRAEDTAVYYCTTSGSYDYWGQGTMVTVSS
VL: SYVLTQPPSVSGTPGQRVTISCSGGRSNIGSNTVKWYQQLPGTAPKLLIYGNDQRPSGVPDRFSGSKSGTSASLAITGVQAEDEADYYCHSYESGFTGSRVFGTGTKVTVLG
B15: 73-D1 (antibody, V domains shown)
VH: QVQLVQSGGGVVQPGRSLRLSCAASGFTFSSYGMHWVRQAPGKGLEWVAFIRYDGSNKYYADSVKGRFTISRDNSKNTLYLQMKSLRAEDTAVYYCTTSGSYDYWGQGTMVTVSS
VL: SYVLTQPPSVSGTPGQRVTISCSGGRSNIGSNTVKWYQQLPGTAPKLLIYGNDQRPSGVPDRFSGSKSGTSASLAITGVQAEDEADYYCHSYDSGFTGSRVFGTGTKVTVLG

This assay concerns the target T1, human interleukin 12. In words: SPR (BIAcore). Background: In SPR one partner is held on a chip, and binding of the other changes the refractive index at the surface.
In the case of B1, the koff is 0.00389 s⁻¹.
The value for B2 was 0.00398 s⁻¹; that for B3 was 0.00396 s⁻¹; that for B4 was 0.0035 s⁻¹.
Consider B5, for which the koff stood at 0.00357 s⁻¹. The koff values of the last two molecules are within 1.5-fold of each other.
In the case of B6 it was 0.00379 s⁻¹.
Molecule B7 showed a koff of 0.00708 s⁻¹.
B8 showed a koff of 0.00601 s⁻¹.
The value for B9 was 0.00658 s⁻¹; that for B10 was 0.00207 s⁻¹; that for B11 was 0.00536 s⁻¹.
B12: the koff turned out to be 0.00374 s⁻¹.
The value for B13 was 0.00498 s⁻¹; that for B14 was 0.00417 s⁻¹.
In the case of B15 it was 0.00399 s⁻¹.

Broadly, the koff is a measure of how fast the partners let go of each other. Low readings indicate slow dissociation, high ones fast dissociation.

For the origin of these results see patent US20120219562A1 (AbbVie / Abbott, published 2012).
